Laboratory results: US20250382381A1

Molecular target: mouse ART2 (ART2.2) on T cells (mouse) (UniProt O35975)
Assay: cell-based or functional assay

Chain of mouse ART2 (ART2.2) on T cells (mouse) (O35975 21-260): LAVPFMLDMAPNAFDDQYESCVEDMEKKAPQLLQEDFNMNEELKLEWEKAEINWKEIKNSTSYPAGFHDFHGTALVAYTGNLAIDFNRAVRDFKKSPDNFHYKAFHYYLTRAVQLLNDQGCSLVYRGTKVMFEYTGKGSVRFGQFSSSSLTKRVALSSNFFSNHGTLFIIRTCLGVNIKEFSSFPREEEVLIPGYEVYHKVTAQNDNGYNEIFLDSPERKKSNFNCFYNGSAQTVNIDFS

- ADP-ribosylation of CD4 T cells (eNAD staining, flow cytometry): 9.3%
- ADP-ribosylation of CD8 T cells (eNAD staining, flow cytometry): 12.9%
Substance: ART2-blocking nanobody (s+16a) (VHH)
